Data from patent publication US20110118131A1 (published 2011).

The binders below were run against T1, IL-1beta (UniProt P01584 117-269) (assay: Biacore).
T1 construct: also called IL-1β

binding result	fold difference in affinity vs parental	Binder
no binding	–	XPA23 Fab, heavy chain S52K (Fab, V domains shown) VH: EVQLLESGGGLVQPGGSLRLSCAASGFTFSKYFMFWVRQAPGKGLEWVSVIKPSGGMTRYADSVKGRFTISRDNSKNTLYLQMNSLRAEDTAVYYCARVGYGGNSDYWGQGTLVTVSS VL: DIQMTQSPSSVSASVGDRLTIICRASQDINRWLAWYQQTPGNAPKLLIHSATSLQSGVPSRFSGSGSGTDFTLTINSLQPEDFATYYCQQADSFPLTFGGGTKVEIK
no binding	–	XPA23 Fab, heavy chain S52W (Fab, V domains shown) VH: EVQLLESGGGLVQPGGSLRLSCAASGFTFSKYFMFWVRQAPGKGLEWVSVIWPSGGMTRYADSVKGRFTISRDNSKNTLYLQMNSLRAEDTAVYYCARVGYGGNSDYWGQGTLVTVSS VL: DIQMTQSPSSVSASVGDRLTIICRASQDINRWLAWYQQTPGNAPKLLIHSATSLQSGVPSRFSGSGSGTDFTLTINSLQPEDFATYYCQQADSFPLTFGGGTKVEIK
no binding	–	XPA23 Fab, heavy chain S52F (Fab, V domains shown) VH: EVQLLESGGGLVQPGGSLRLSCAASGFTFSKYFMFWVRQAPGKGLEWVSVIFPSGGMTRYADSVKGRFTISRDNSKNTLYLQMNSLRAEDTAVYYCARVGYGGNSDYWGQGTLVTVSS VL: DIQMTQSPSSVSASVGDRLTIICRASQDINRWLAWYQQTPGNAPKLLIHSATSLQSGVPSRFSGSGSGTDFTLTINSLQPEDFATYYCQQADSFPLTFGGGTKVEIK
no binding	–	XPA23 Fab, heavy chain S30Y (Fab, V domains shown) VH: EVQLLESGGGLVQPGGSLRLSCAASGFTFYKYFMFWVRQAPGKGLEWVSVISPSGGMTRYADSVKGRFTISRDNSKNTLYLQMNSLRAEDTAVYYCARVGYGGNSDYWGQGTLVTVSS VL: DIQMTQSPSSVSASVGDRLTIICRASQDINRWLAWYQQTPGNAPKLLIHSATSLQSGVPSRFSGSGSGTDFTLTINSLQPEDFATYYCQQADSFPLTFGGGTKVEIK
no binding	–	XPA23 Fab, heavy chain S30Q (Fab, V domains shown) VH: EVQLLESGGGLVQPGGSLRLSCAASGFTFQKYFMFWVRQAPGKGLEWVSVISPSGGMTRYADSVKGRFTISRDNSKNTLYLQMNSLRAEDTAVYYCARVGYGGNSDYWGQGTLVTVSS VL: DIQMTQSPSSVSASVGDRLTIICRASQDINRWLAWYQQTPGNAPKLLIHSATSLQSGVPSRFSGSGSGTDFTLTINSLQPEDFATYYCQQADSFPLTFGGGTKVEIK
no binding	–	XPA23 Fab, heavy chain S52R (Fab, V domains shown) VH: EVQLLESGGGLVQPGGSLRLSCAASGFTFSKYFMFWVRQAPGKGLEWVSVIRPSGGMTRYADSVKGRFTISRDNSKNTLYLQMNSLRAEDTAVYYCARVGYGGNSDYWGQGTLVTVSS VL: DIQMTQSPSSVSASVGDRLTIICRASQDINRWLAWYQQTPGNAPKLLIHSATSLQSGVPSRFSGSGSGTDFTLTINSLQPEDFATYYCQQADSFPLTFGGGTKVEIK
no binding	–	XPA23 Fab, heavy chain S30H (Fab, V domains shown) VH: EVQLLESGGGLVQPGGSLRLSCAASGFTFHKYFMFWVRQAPGKGLEWVSVISPSGGMTRYADSVKGRFTISRDNSKNTLYLQMNSLRAEDTAVYYCARVGYGGNSDYWGQGTLVTVSS VL: DIQMTQSPSSVSASVGDRLTIICRASQDINRWLAWYQQTPGNAPKLLIHSATSLQSGVPSRFSGSGSGTDFTLTINSLQPEDFATYYCQQADSFPLTFGGGTKVEIK

Further lines, the binder ahead of its results:

Binder	binding result	fold difference in affinity vs parental
XPA23 Fab, heavy chain S30F (Fab, V domains shown) VH: EVQLLESGGGLVQPGGSLRLSCAASGFTFFKYFMFWVRQAPGKGLEWVSVISPSGGMTRYADSVKGRFTISRDNSKNTLYLQMNSLRAEDTAVYYCARVGYGGNSDYWGQGTLVTVSS VL: DIQMTQSPSSVSASVGDRLTIICRASQDINRWLAWYQQTPGNAPKLLIHSATSLQSGVPSRFSGSGSGTDFTLTINSLQPEDFATYYCQQADSFPLTFGGGTKVEIK	no binding	–
XPA23 Fab, heavy chain S52D (Fab, V domains shown) VH: EVQLLESGGGLVQPGGSLRLSCAASGFTFSKYFMFWVRQAPGKGLEWVSVIDPSGGMTRYADSVKGRFTISRDNSKNTLYLQMNSLRAEDTAVYYCARVGYGGNSDYWGQGTLVTVSS VL: DIQMTQSPSSVSASVGDRLTIICRASQDINRWLAWYQQTPGNAPKLLIHSATSLQSGVPSRFSGSGSGTDFTLTINSLQPEDFATYYCQQADSFPLTFGGGTKVEIK	no binding	–
XPA23 Fab, heavy chain S30N (Fab, V domains shown) VH: EVQLLESGGGLVQPGGSLRLSCAASGFTFNKYFMFWVRQAPGKGLEWVSVISPSGGMTRYADSVKGRFTISRDNSKNTLYLQMNSLRAEDTAVYYCARVGYGGNSDYWGQGTLVTVSS VL: DIQMTQSPSSVSASVGDRLTIICRASQDINRWLAWYQQTPGNAPKLLIHSATSLQSGVPSRFSGSGSGTDFTLTINSLQPEDFATYYCQQADSFPLTFGGGTKVEIK	–	0.15 fold
XPA23 Fab, heavy chain S52Q (Fab, V domains shown) VH: EVQLLESGGGLVQPGGSLRLSCAASGFTFSKYFMFWVRQAPGKGLEWVSVIQPSGGMTRYADSVKGRFTISRDNSKNTLYLQMNSLRAEDTAVYYCARVGYGGNSDYWGQGTLVTVSS VL: DIQMTQSPSSVSASVGDRLTIICRASQDINRWLAWYQQTPGNAPKLLIHSATSLQSGVPSRFSGSGSGTDFTLTINSLQPEDFATYYCQQADSFPLTFGGGTKVEIK	no binding	–
XPA23 Fab, heavy chain S52Y (Fab, V domains shown) VH: EVQLLESGGGLVQPGGSLRLSCAASGFTFSKYFMFWVRQAPGKGLEWVSVIYPSGGMTRYADSVKGRFTISRDNSKNTLYLQMNSLRAEDTAVYYCARVGYGGNSDYWGQGTLVTVSS VL: DIQMTQSPSSVSASVGDRLTIICRASQDINRWLAWYQQTPGNAPKLLIHSATSLQSGVPSRFSGSGSGTDFTLTINSLQPEDFATYYCQQADSFPLTFGGGTKVEIK	no binding	–
XPA23 Fab, heavy chain S52H (Fab, V domains shown) VH: EVQLLESGGGLVQPGGSLRLSCAASGFTFSKYFMFWVRQAPGKGLEWVSVIHPSGGMTRYADSVKGRFTISRDNSKNTLYLQMNSLRAEDTAVYYCARVGYGGNSDYWGQGTLVTVSS VL: DIQMTQSPSSVSASVGDRLTIICRASQDINRWLAWYQQTPGNAPKLLIHSATSLQSGVPSRFSGSGSGTDFTLTINSLQPEDFATYYCQQADSFPLTFGGGTKVEIK	no binding	–
XPA23 Fab, heavy chain S30K (Fab, V domains shown) VH: EVQLLESGGGLVQPGGSLRLSCAASGFTFKKYFMFWVRQAPGKGLEWVSVISPSGGMTRYADSVKGRFTISRDNSKNTLYLQMNSLRAEDTAVYYCARVGYGGNSDYWGQGTLVTVSS VL: DIQMTQSPSSVSASVGDRLTIICRASQDINRWLAWYQQTPGNAPKLLIHSATSLQSGVPSRFSGSGSGTDFTLTINSLQPEDFATYYCQQADSFPLTFGGGTKVEIK	no binding	–
XPA23 Fab, heavy chain S54K (Fab, V domains shown) VH: EVQLLESGGGLVQPGGSLRLSCAASGFTFSKYFMFWVRQAPGKGLEWVSVISPKGGMTRYADSVKGRFTISRDNSKNTLYLQMNSLRAEDTAVYYCARVGYGGNSDYWGQGTLVTVSS VL: DIQMTQSPSSVSASVGDRLTIICRASQDINRWLAWYQQTPGNAPKLLIHSATSLQSGVPSRFSGSGSGTDFTLTINSLQPEDFATYYCQQADSFPLTFGGGTKVEIK	–	1.53 fold
XPA23 Fab, heavy chain S30W (Fab, V domains shown) VH: EVQLLESGGGLVQPGGSLRLSCAASGFTFWKYFMFWVRQAPGKGLEWVSVISPSGGMTRYADSVKGRFTISRDNSKNTLYLQMNSLRAEDTAVYYCARVGYGGNSDYWGQGTLVTVSS VL: DIQMTQSPSSVSASVGDRLTIICRASQDINRWLAWYQQTPGNAPKLLIHSATSLQSGVPSRFSGSGSGTDFTLTINSLQPEDFATYYCQQADSFPLTFGGGTKVEIK	–	0.77 fold
XPA23 Fab, heavy chain S52N (Fab, V domains shown) VH: EVQLLESGGGLVQPGGSLRLSCAASGFTFSKYFMFWVRQAPGKGLEWVSVINPSGGMTRYADSVKGRFTISRDNSKNTLYLQMNSLRAEDTAVYYCARVGYGGNSDYWGQGTLVTVSS VL: DIQMTQSPSSVSASVGDRLTIICRASQDINRWLAWYQQTPGNAPKLLIHSATSLQSGVPSRFSGSGSGTDFTLTINSLQPEDFATYYCQQADSFPLTFGGGTKVEIK	no binding	–
XPA23 Fab, heavy chain S52E (Fab, V domains shown) VH: EVQLLESGGGLVQPGGSLRLSCAASGFTFSKYFMFWVRQAPGKGLEWVSVIEPSGGMTRYADSVKGRFTISRDNSKNTLYLQMNSLRAEDTAVYYCARVGYGGNSDYWGQGTLVTVSS VL: DIQMTQSPSSVSASVGDRLTIICRASQDINRWLAWYQQTPGNAPKLLIHSATSLQSGVPSRFSGSGSGTDFTLTINSLQPEDFATYYCQQADSFPLTFGGGTKVEIK	no binding	–
XPA23 Fab, heavy chain S30R (Fab, V domains shown) VH: EVQLLESGGGLVQPGGSLRLSCAASGFTFRKYFMFWVRQAPGKGLEWVSVISPSGGMTRYADSVKGRFTISRDNSKNTLYLQMNSLRAEDTAVYYCARVGYGGNSDYWGQGTLVTVSS VL: DIQMTQSPSSVSASVGDRLTIICRASQDINRWLAWYQQTPGNAPKLLIHSATSLQSGVPSRFSGSGSGTDFTLTINSLQPEDFATYYCQQADSFPLTFGGGTKVEIK	–	0.1 fold
XPA23 Fab, heavy chain S54F (Fab, V domains shown) VH: EVQLLESGGGLVQPGGSLRLSCAASGFTFSKYFMFWVRQAPGKGLEWVSVISPFGGMTRYADSVKGRFTISRDNSKNTLYLQMNSLRAEDTAVYYCARVGYGGNSDYWGQGTLVTVSS VL: DIQMTQSPSSVSASVGDRLTIICRASQDINRWLAWYQQTPGNAPKLLIHSATSLQSGVPSRFSGSGSGTDFTLTINSLQPEDFATYYCQQADSFPLTFGGGTKVEIK	–	0.87 fold
XPA23 Fab, heavy chain S54E (Fab, V domains shown) VH: EVQLLESGGGLVQPGGSLRLSCAASGFTFSKYFMFWVRQAPGKGLEWVSVISPEGGMTRYADSVKGRFTISRDNSKNTLYLQMNSLRAEDTAVYYCARVGYGGNSDYWGQGTLVTVSS VL: DIQMTQSPSSVSASVGDRLTIICRASQDINRWLAWYQQTPGNAPKLLIHSATSLQSGVPSRFSGSGSGTDFTLTINSLQPEDFATYYCQQADSFPLTFGGGTKVEIK	–	0.03 fold
XPA23 Fab, heavy chain S54D (Fab, V domains shown) VH: EVQLLESGGGLVQPGGSLRLSCAASGFTFSKYFMFWVRQAPGKGLEWVSVISPDGGMTRYADSVKGRFTISRDNSKNTLYLQMNSLRAEDTAVYYCARVGYGGNSDYWGQGTLVTVSS VL: DIQMTQSPSSVSASVGDRLTIICRASQDINRWLAWYQQTPGNAPKLLIHSATSLQSGVPSRFSGSGSGTDFTLTINSLQPEDFATYYCQQADSFPLTFGGGTKVEIK	–	0.12 fold
